Here are results for six molecules from article PMC3167620.

Substitutions are numbered along the chain they refer to. Like-named read-outs stand apart in the source and are kept apart here. Where only a bound is given, the exact number is not on record here.

The target in data set [1] is T1, G4R1/RHAU (G4 Resolvase 1) (human, UniProt Q9H2U1 1-1008).
T1 sequence: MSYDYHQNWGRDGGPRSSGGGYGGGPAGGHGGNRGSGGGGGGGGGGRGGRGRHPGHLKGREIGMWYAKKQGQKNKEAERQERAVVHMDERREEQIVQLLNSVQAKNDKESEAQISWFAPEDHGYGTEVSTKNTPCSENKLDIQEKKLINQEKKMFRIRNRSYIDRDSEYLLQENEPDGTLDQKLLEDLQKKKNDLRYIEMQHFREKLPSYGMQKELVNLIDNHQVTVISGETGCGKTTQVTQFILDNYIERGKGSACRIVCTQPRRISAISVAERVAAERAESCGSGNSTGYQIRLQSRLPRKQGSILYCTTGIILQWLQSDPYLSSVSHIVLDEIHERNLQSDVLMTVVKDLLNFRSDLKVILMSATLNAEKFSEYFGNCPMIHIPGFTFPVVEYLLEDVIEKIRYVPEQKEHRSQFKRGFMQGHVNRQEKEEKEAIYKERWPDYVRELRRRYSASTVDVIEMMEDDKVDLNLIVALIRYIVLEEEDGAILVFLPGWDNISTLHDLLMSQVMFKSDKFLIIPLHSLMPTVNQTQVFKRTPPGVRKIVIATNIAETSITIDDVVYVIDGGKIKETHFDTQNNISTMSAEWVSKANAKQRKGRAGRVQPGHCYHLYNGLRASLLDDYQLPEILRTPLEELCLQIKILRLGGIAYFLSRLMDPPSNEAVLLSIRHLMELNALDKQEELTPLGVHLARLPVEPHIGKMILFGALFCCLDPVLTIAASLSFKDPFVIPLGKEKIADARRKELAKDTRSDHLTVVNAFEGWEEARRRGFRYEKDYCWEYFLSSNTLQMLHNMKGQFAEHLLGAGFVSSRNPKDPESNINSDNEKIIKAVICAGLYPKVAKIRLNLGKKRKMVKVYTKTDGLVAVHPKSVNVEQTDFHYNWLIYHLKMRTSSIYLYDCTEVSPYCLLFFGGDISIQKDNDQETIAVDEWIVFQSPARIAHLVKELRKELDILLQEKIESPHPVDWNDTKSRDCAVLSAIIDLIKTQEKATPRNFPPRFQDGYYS
As to the kind of experiment: EMSA.

Data set [2] concerns the target T1, G4R1/RHAU (G4 Resolvase 1). As to the kind of experiment: EMSA. This is another data set of the same source. (A gel shift assay detects complexes by their altered migration in electrophoresis.)
In data set [3] the target is T1, G4R1/RHAU (G4 Resolvase 1). Briefly: EMSA. The source holds these as a separate data set.
Data set [4] addresses T2, G4R1/RHAU E335A (Walker B, ATPase-dead) (human, UniProt Q9H2U1 1-1008, E335A).
T2 sequence: T1 sequence with E335A
Briefly: EMSA.

Data set [5] deals with T1, G4R1/RHAU (G4 Resolvase 1). Briefly: EMSA. This is another data set of the same source.
Data set [6] has as its target T1, G4R1/RHAU (G4 Resolvase 1). Briefly: competition.
The target of data set [7] is T1, G4R1/RHAU (G4 Resolvase 1). Briefly: competition. The source holds these as a separate data set.

B1: Scrambled Zic1 DNA 47-mer (ssDNA)
DNA: AGAAGAGAGAGAGTGAGAGAGACGAGAGAGGCCGAGAAGAGAGAGAG
Take B1: the equilibrium dissociation constant (Kd) in data set [1] was > 0.3 nM.

B2: Poly A Zic1 DNA 47-mer, unimolecular G4 (structured_DNA)
DNA: AAAAAAAAAAGGGTGGGGGGGCGGGGGAGGCCGGGGAAAAAAAAAA
Turning to B2, the equilibrium dissociation constant (Kd) in data set [2] came out at 5.7 ± 0.2 pM; in data set [3], 5 pM. Besides, the binding result in data set [4] was “binds”.

B3: Poly A Zic1 47-mer, dimethyl sulfate treated (ssDNA)
DNA: B2 DNA
modifications: guanine N7 methylation (DMS)
Consider B3, for which the binding result in data set [5] is given as “no binding”.

B4: c-Myc DNA 51-mer, unimolecular G4 (structured_DNA)
DNA: GGCCGCTTATGGGGAGGGTGGGGAGGGTGGGGAAGGTGGGGAGGAGACTCA
In turn, B4 showed a dissociation constant (Kd) in data set [2] of 4.4 ± 0.6 pM. For the same molecule, in data set [6], the IC50 was 0.06 competitor:substrate molar ratio.

B5: Z33 tetramolecular G4-DNA (structured_DNA)
DNA: AAAGTGATGGTGGTGGGGGAAGGATTTTCGAAC
On to B5, for which the IC50 in data set [7] is 1 competitor:substrate molar ratio.

B6: Poly T Zic1 DNA 47-mer, unimolecular G4 (structured_DNA)
DNA: TTTTTTTTTTGGGTGGGGGGGGCGGGGGAGGCCGGGGTTTTTTTTTT
Regarding B6, the Kd in data set [2] was 2.4 ± 0.2 pM.

Usually Kd stands for the free concentration of one partner at which half of the binding sites on the other are occupied at equilibrium, for simple one-to-one binding. A higher Kd goes with a looser complex.
